# Reference: publication PMC3804602, “Nanobody Mediated Crystallization of an Archeal Mechanosensitive Channel” (PLoS ONE, 2013)
# T1: T2 mechanosensitive channel from Thermoplasma volcanium, tag free (Thermoplasma volcanium)
# T1 construct: TVN0821, gene amplified from genomic DNA (DSM 4299 [GSS1*]); 297 amino acids per monomer; Cloned into pNIC28-Bsa4 (TEV site) and pET46 (Enterokinase site); In detergent (0.03 % DDM); also called T2 channel; tag free T2-channel; source: E. coli C43(DE3), purified (DDM solubilised, IMAC, tag cleavage, second IMAC, gel filtration); not shown: His-tag, N-terminal, cleaved
# T1 chain: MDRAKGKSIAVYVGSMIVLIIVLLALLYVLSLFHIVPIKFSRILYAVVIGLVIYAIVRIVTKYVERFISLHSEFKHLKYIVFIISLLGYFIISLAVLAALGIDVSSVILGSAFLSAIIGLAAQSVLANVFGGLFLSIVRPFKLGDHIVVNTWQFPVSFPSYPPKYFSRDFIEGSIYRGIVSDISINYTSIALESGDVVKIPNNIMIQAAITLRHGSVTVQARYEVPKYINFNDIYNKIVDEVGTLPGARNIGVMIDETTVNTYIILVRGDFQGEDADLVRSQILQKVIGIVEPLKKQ
# Columns and labels:
# [1] = target: T1 mechanosensitive channel from Thermoplasma volcanium (Thermoplasma volcanium); test: cross-linking; chemical crosslinking; the sample of T1 is not told (only T2 is shown, Figure 2 D)
# [2] = target: His-tagged T2 mechanosensitive channel from Thermoplasma volcanium (Thermoplasma volcanium); test: cross-linking; chemical crosslinking of the T2 channel in crude membranes; ladder of five bands
# [3] = target: T1, T2 mechanosensitive channel from …; test: SPR; BIAcore 3000, 25 °C, 20 mM sodium phosphate pH 7.4, 150 mM NaCl, 0.03 % DDM; T2 channel amine-coupled on CM5 (1500 - 2000 RU); nanobodies 0.35 - 86.1 nM injected in triplicates; global fit to a simple bimolecular model, KD = kd/ka; details: both partners purified
# [4] = target: His-tagged T2 mechanosensitive channel from Thermoplasma volcanium (Thermoplasma volcanium); test: far-Western, overlay or dot blot; channel samples run on SDS-PAGE and blotted on nitrocellulose (His-tagged T1 0.1 µg, His-tagged T2 0.1 µg, tag free T2 0.01 and 0.1 µg); strips incubated with nanobody at 1 µg/ml for 1 hour, bound His-tagged nanobody detected with HisProbe-HRP; intensity ratio of lane 2 of the sample strip to the reference strip
stoichiometry N [1],stoichiometry N [2],Kd [3],koff [3],kon [3],ratio of WB intensities [4],Molecule
5,–,–,–,–,–,T1 mechanosensitive channel from Thermoplasma volcanium (natural protein)
–,5,–,–,–,–,His-tagged T2 mechanosensitive channel from Thermoplasma volcanium (natural protein)
–,–,81.2 nM,0.104 s⁻¹,1.31e+06 M⁻¹ s⁻¹,–,"nanobody 2 (VHH, pHEN6 vector; also called Nb 2; CA-number 3381; source: E. coli WK6 periplasm, purified (IMAC, gel filtration); not shown: His-tag, C-terminal, kept) VHH: QVQLQESGGGLVQAGGSLRLSCAASGGTFRTGGMAWFRQAPGKAREFAAGISWSGGSTDYGDSVKGRFTISRDNAKNTVYLQMNSLKPEDTAVYYCAASRRFRSGVLTRADDVDYWGKGTQVTVSS"
–,–,25.4 nM,0.0061 s⁻¹,240000 M⁻¹ s⁻¹,–,"nanobody 22 (VHH, pHEN6 vector; also called Nb 22; CA-number 3406; source: E. coli WK6 periplasm, purified (IMAC, gel filtration); not shown: His-tag, C-terminal, kept) VHH: QVQLQESGGGLVQAGGSLRLSCAASGGTFKSGGMAWFRQAPGKAREFAAGISWSGGSTDYEDSVKGRFTISRDNAKNTMYLQMNSLKPEDTAVYYCAAARRFRAGVVTRADDVDYWGKGTQVTVSS"
–,–,0.58 nM,0.00089 s⁻¹,1.56e+06 M⁻¹ s⁻¹,15,"nanobody 8 (VHH, pHEN6 vector; also called Nb 8; CA-number 3389; source: E. coli WK6 periplasm, purified (IMAC, gel filtration); not shown: His-tag, C-terminal, kept) VHH: QVQLQESGGGLVQPGGSLRLSCAASGSPFSFGAMGWYRQAPGKQRELAAIITNAGSTMYADSVKGRFTVSRVNAKNTVSLQMNNLKPEDTAVYYCYAQTAPVADVTWGQGTQVTVSS"
–,–,1.1 nM,0.00052 s⁻¹,480000 M⁻¹ s⁻¹,15.7,"nanobody 18 (VHH, pHEN6 vector; also called Nb 18; CA-number 3401; source: E. coli WK6 periplasm, purified (IMAC, gel filtration); not shown: His-tag, C-terminal, kept) VHH: QVQLQESGGGLVQPGGSLRLSCAASGSIFSINAMGWYRQAPGKQRELVAFITKVGNTNYADSVKDRFAISRDNAKNTVYLQMNSLKPEDTAVYYCYADIENSSNYKQDFYWGQGTQVTVSS"
–,–,23 nM,0.07 s⁻¹,3e+06 M⁻¹ s⁻¹,–,"nanobody 7 (VHH, pHEN6 vector; also called Nb 7; CA-number 3388; source: E. coli WK6 periplasm, purified (IMAC, gel filtration); not shown: His-tag, C-terminal, kept) VHH: QVQLQESGGGLVQPGGSLRLSCTASGTIFMIDAMGWYRQAPGKQRELVALINSGGSTNYADSVKGRFAISRNNARSTVYLQMNSLKPEDTAVYYCNADTWNGVRRDVYWGQGTQVTVSS"
–,–,0.78 nM,0.00095 s⁻¹,1.26e+06 M⁻¹ s⁻¹,16.6,"nanobody 23 (VHH, pHEN6 vector; also called Nb 23; CA-number 3407; source: E. coli WK6 periplasm, purified (IMAC, gel filtration); not shown: His-tag, C-terminal, kept) VHH: QVQLQESGGGLVQPGGFLTLSCAASGSPFSFGAMGWYRQAPGKQRELVAIITRRGSTNYADSVKGRFTVSSDNAKNTVYLQMNSLKPEDTAVYYCYHQTAPVADVTWGQGTQVTVSS"
–,–,15.1 nM,0.0016 s⁻¹,100000 M⁻¹ s⁻¹,14.2,"nanobody 11 (VHH, pHEN6 vector; also called Nb 11; CA-number 3393; source: E. coli WK6 periplasm, purified (IMAC, gel filtration); not shown: His-tag, C-terminal, kept) VHH: QVQLQESGGGLVQAGGSLRLSCAASGGPFTFGAMGWYRQAPGKQRELVAIITKKGSTNYADSVKGRFTVSRDNAKNTVYLQMNSLKPEDTAVYYCYHQTAPVADVTWGQGTQVTVSS"
–,–,7.4 nM,0.0055 s⁻¹,750000 M⁻¹ s⁻¹,1.98,"nanobody 16 (VHH, pHEN6 vector; also called Nb 16; CA-number 3398; source: E. coli WK6 periplasm, purified (IMAC, gel filtration); not shown: His-tag, C-terminal, kept) VHH: QVQLQESGGGLVQPGGSLTLSCAASGSPFSFGAMGWYRQAPGKQRELVAIITSGGSTNYADSVKGRFTVSRDNAKNTVYLQMNSLKPEDTAVYYCYHQTAPVADVTWGQGTQVTVSS"
–,–,4.4 nM,0.0081 s⁻¹,1.82e+06 M⁻¹ s⁻¹,4.7,"nanobody 6 (VHH, pHEN6 vector; also called Nb 6; CA-number 3387; source: E. coli WK6 periplasm, purified (IMAC, gel filtration); not shown: His-tag, C-terminal, kept) VHH: QVQLQESGGGLVQPGGSLRLSCAASGSIFSINAMGWYRQAPGKQRELVAVLTRRGSTNYADSMKGRFTISRDNTKNTVYLQMNSLKPEDTAVYYCNADLEGRPLYWGQGTQVTVSS"
–,–,9.5 nM,0.0091 s⁻¹,960000 M⁻¹ s⁻¹,4.59,"nanobody 3 (VHH, pHEN6 vector; also called Nb 3; CA-number 3382; source: E. coli WK6 periplasm, purified (IMAC, gel filtration); not shown: His-tag, C-terminal, kept) VHH: QVQLQESGGGLVQPGGSLRLSCAASGFTLDYYAIGWFRQTPGKEREGVSCISSSDDSTYYADSVKGRFTISRDNAKNTVYLQMNSLKPEDTAVYYCATGWACTLVAGTNGMDYWGKGTQVTVSS"
–,–,3.8 nM,0.0025 s⁻¹,650000 M⁻¹ s⁻¹,7.15,"nanobody 12 (VHH, pHEN6 vector; also called Nb 12; CA-number 3394; source: E. coli WK6 periplasm, purified (IMAC, gel filtration); not shown: His-tag, C-terminal, kept) VHH: QVQLQESGGGLVQPGGSLRLSCVASGSIFSINAMGWYRQAPGKQRDLVAVITSRGSTNYADSVKGRFTISRDNAKNTTYLQMNSLKPEDTAVYYCNADLAAYYSGTYYDTLLYWGQGTQVTVSS"
–,–,1.29 nM,0.0015 s⁻¹,1.35e+06 M⁻¹ s⁻¹,17.5,"nanobody 19 (VHH, pHEN6 vector; also called Nb 19; CA-number 3402; source: E. coli WK6 periplasm, purified (IMAC, gel filtration); not shown: His-tag, C-terminal, kept) VHH: QVQLQESGGGLVQPGGSLRLSCAASGSISRLNHMGWYRQPPGKQRELVAVITSGGSTDYADSVKGRFTISSGNAKNTVYLQMNSLKTEDTAVYYCNAYSEFIRPYTLWGQGTQVTVSS"
–,–,0.61 nM,0.00088 s⁻¹,1.46e+06 M⁻¹ s⁻¹,15.1,"nanobody 13 (VHH, pHEN6 vector; also called Nb 13; CA-number 3395; source: E. coli WK6 periplasm, purified (IMAC, gel filtration); not shown: His-tag, C-terminal, kept) VHH: QVQLQESGGGLVQPGGSLRLSCAASGSISRINHMGWYRQPPGKQRELVAVITSGGSTNYADSVKGRFTISRGNYQNTVYLQMNSLKAEDTAVYYCNAYTEFDRPYNHWGQGTQVTVSS"
–,–,14.2 nM,0.0278 s⁻¹,1.98e+06 M⁻¹ s⁻¹,–,"nanobody 1 (VHH, pHEN6 vector; also called Nb 1; CA-number 3379; source: E. coli WK6 periplasm, purified (IMAC, gel filtration); not shown: His-tag, C-terminal, kept) VHH: QVQLQESGGGLVQPGGSLRLSCAASGRIPFITAMGWYRQAPGKQRELLASVTNSEITNYADSVKGRFTISRDNARNRVYLQMNSLKPEDTAVYYCNVKRAGNLIDYWGQGTQVTVSS"
–,–,4.5 nM,0.00315 s⁻¹,710000 M⁻¹ s⁻¹,6.09,"nanobody 17 (VHH, pHEN6 vector; also called Nb 17; CA-number 3399; source: E. coli WK6 periplasm, purified (IMAC, gel filtration); not shown: His-tag, C-terminal, kept) VHH: QVQLQESGGGLVQPGGSLRLSCAASGSIFSINSMDWYRQAPGKQRELVATITSGGSTNYADSVKGRFTISRDNGKNTVYLQMNSLKPEDTAVYYCHAVVSTRGGYWGQGTQVTVSS"
–,–,3.9 nM,0.0036 s⁻¹,940000 M⁻¹ s⁻¹,9.8,"nanobody 10 (VHH, pHEN6 vector; also called Nb 10; CA-number 3391; source: E. coli WK6 periplasm, purified (IMAC, gel filtration); not shown: His-tag, C-terminal, kept) VHH: QVQLQESGGGLVQPGGSLRLSCAASGSIFSINSMDWYRQAPGKQRELVATITSGGSTNYADSVKGRFTISRDNAKNTVYLQMNSLKPEDTAVYYCHAVVATRGGYWGQGTQVTVSS"
–,–,2.6 nM,0.0023 s⁻¹,880000 M⁻¹ s⁻¹,6.07,"nanobody 14 (VHH, pHEN6 vector; also called Nb 14; CA-number 3396; source: E. coli WK6 periplasm, purified (IMAC, gel filtration); not shown: His-tag, C-terminal, kept) VHH: QVQLQESGGGLVQPGGSLRLSCAASGSIFSINSMDWYRQAPGKQRELVATITSGGSTNYADSVKGRFTISRDNAKNTVYLQMNSLKPEDTAVYLCHAVVATRGGYWGQGTQVTVSS"
–,–,3.4 nM,0.0021 s⁻¹,620000 M⁻¹ s⁻¹,3.87,"nanobody 4 (VHH, pHEN6 vector; also called Nb 4; CA-number 3383; source: E. coli WK6 periplasm, purified (IMAC, gel filtration); not shown: His-tag, C-terminal, kept) VHH: QVQLQESGGGLVQPGGSLRLSCAASGSIFSMNSMDWYRQAPGKQRELVATITSGGSTNYADSVKGRFTISRDNAWNTVTLQMNSLKPEDTAVYYCHAVLSTRGGYWGQGTQVTVSS"
–,–,3.5 nM,0.0036 s⁻¹,1.03e+06 M⁻¹ s⁻¹,4.86,"nanobody 20 (VHH, pHEN6 vector; also called Nb 20; CA-number 3403; source: E. coli WK6 periplasm, purified (IMAC, gel filtration); not shown: His-tag, C-terminal, kept) VHH: QVQLQESGGGLVQPGGSLRLSCAASGNIFGINSMDWYRQAPGKQRELVATITSGGSTNYGDSVKGRFTISRDNAKNTMYLQMNSLKPEDTAVYYCHAVLSTRGGYWGQGTQVTVSS"
–,–,37 nM,0.171 s⁻¹,5e+06 M⁻¹ s⁻¹,–,"nanobody 21 (VHH, pHEN6 vector; also called Nb 21; CA-number 3404; source: E. coli WK6 periplasm, purified (IMAC, gel filtration); not shown: His-tag, C-terminal, kept) VHH: QVQLQESGGGLVQPGGSLRLSCAASGRIPFITAMGWYRQAPGRQRELLATVTNSGSTNYADSVKGRFTISRDNAKNTVSLQMNSLKAEDTAVYYCNVRRLGNLSDYWGQGTQVTVSS"
–,–,0.057 nM,0.00011 s⁻¹,1.96e+06 M⁻¹ s⁻¹,25.7,"nanobody 15 (VHH, pHEN6 vector; also called Nb 15; CA-number 3397; source: E. coli WK6 periplasm, purified (IMAC, gel filtration); not shown: His-tag, C-terminal, kept) VHH: QVQLQESGGGLVQPGGSLRLSCAASGSISTINHMGWYRQPPGKQRELVAVITRSGSTNYADSVKGRFTISRGNVKNTVYLQMNSVKAEDTAVYYCNAYTEFDRPYNHWGQGTQVTVSS"
–,–,48.3 nM,0.15 s⁻¹,3.1e+06 M⁻¹ s⁻¹,–,"nanobody 9 (VHH, pHEN6 vector; also called Nb 9; CA-number 3390; source: E. coli WK6 periplasm, purified (IMAC, gel filtration); not shown: His-tag, C-terminal, kept) VHH: QVQLQESGGGLVQPGGSLRLSCAASGSIFGINAMGWYRRPPGKQRELVAVITSGGSTNYADSVKGRFTISRGNAKNTVYLQMNSLKAEDTAVYYCNAYTDFVRPYNHWGQGTQVTVSS"
